The text below walks through data of article PMC9976902, “Interaction of human HelQ with DNA polymerase delta halts DNA synthesis and stimulates DNA single-strand annealing” (Nucleic Acids Research, 2022).

In data set [1] the target is T1, human DNA polymerase δ complex (PolD1-4) (human, UniProt P28340 1-1107; P49005 1-469; Q15054 1-466; Q9HCU8 1-107). Briefly: cell-based or functional assay.
Data set [2] addresses T2, human Pol δ sub-unit POLD3, purified individually (human, UniProt Q15054 1-466).
T2 sequence (looked up): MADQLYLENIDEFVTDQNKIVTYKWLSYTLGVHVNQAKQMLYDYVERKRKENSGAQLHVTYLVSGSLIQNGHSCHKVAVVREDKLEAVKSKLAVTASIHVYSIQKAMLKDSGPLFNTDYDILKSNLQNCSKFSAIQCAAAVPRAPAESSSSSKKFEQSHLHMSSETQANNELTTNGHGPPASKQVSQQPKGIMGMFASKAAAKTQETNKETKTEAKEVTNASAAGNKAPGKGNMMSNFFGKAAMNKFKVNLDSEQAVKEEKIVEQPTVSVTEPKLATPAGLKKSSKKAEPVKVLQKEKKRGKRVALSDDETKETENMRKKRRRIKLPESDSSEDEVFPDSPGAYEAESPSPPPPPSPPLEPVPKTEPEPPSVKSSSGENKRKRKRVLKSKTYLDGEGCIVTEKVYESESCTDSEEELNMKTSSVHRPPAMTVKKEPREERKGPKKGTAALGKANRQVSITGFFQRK
Briefly: cell-based or functional assay.

The next data set addresses T3, HelQ (human, UniProt Q8TDG4 1-1101).
T3 sequence: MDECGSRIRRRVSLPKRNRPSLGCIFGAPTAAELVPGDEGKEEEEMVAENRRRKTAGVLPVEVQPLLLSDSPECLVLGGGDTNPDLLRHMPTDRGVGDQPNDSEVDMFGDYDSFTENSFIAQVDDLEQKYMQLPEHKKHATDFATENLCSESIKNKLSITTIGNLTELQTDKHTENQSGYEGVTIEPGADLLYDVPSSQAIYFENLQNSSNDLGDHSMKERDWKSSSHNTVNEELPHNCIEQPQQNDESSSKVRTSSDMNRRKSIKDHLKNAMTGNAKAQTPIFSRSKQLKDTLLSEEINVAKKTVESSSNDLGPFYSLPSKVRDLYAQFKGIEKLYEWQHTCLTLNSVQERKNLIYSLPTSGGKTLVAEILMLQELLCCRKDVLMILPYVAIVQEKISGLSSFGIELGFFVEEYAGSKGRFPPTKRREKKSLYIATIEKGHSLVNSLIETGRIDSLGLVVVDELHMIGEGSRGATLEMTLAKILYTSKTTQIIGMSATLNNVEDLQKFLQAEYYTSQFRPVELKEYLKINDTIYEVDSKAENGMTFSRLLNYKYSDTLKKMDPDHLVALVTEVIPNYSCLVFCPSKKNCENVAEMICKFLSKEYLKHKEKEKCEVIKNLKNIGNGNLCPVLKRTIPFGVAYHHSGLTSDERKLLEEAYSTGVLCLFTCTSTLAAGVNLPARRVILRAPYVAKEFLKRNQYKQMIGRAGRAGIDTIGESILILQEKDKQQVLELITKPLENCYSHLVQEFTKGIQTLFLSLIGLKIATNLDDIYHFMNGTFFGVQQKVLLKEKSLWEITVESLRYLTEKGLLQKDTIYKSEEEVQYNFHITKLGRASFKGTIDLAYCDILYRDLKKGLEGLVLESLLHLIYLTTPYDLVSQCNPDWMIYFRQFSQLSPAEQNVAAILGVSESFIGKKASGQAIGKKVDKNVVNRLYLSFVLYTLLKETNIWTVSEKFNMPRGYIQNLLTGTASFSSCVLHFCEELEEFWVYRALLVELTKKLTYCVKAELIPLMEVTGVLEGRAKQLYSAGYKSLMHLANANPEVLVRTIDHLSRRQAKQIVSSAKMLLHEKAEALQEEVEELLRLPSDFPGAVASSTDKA
Briefly: EMSA; 50 mM EDTA; HelQ 100-400 nM, DNA 15 nM; EMSA: 20 mM Tris-HCl pH 7.5, 100 mg/ml BSA (so in the source), 7% glycerol, 25 mM DTT, 50 mM EDTA, 25 nM DNA (Methods; 15 nM in legend), 37 C 10 min, 5% TBE gel. To be noted: protein: recombinant; label: Cy5 end label; fork 1:2-25 paired with 2:27-50; 3' tail 25 nt (strand 1), 5' tail 26 nt (strand 2), 1 nt 5' overhang on strand 1.

Data set [3] has as its target T1, human DNA polymerase δ complex (PolD1-4).

T1 sequence (P28340 whole entry, stated change not applied, chain 1 of 3): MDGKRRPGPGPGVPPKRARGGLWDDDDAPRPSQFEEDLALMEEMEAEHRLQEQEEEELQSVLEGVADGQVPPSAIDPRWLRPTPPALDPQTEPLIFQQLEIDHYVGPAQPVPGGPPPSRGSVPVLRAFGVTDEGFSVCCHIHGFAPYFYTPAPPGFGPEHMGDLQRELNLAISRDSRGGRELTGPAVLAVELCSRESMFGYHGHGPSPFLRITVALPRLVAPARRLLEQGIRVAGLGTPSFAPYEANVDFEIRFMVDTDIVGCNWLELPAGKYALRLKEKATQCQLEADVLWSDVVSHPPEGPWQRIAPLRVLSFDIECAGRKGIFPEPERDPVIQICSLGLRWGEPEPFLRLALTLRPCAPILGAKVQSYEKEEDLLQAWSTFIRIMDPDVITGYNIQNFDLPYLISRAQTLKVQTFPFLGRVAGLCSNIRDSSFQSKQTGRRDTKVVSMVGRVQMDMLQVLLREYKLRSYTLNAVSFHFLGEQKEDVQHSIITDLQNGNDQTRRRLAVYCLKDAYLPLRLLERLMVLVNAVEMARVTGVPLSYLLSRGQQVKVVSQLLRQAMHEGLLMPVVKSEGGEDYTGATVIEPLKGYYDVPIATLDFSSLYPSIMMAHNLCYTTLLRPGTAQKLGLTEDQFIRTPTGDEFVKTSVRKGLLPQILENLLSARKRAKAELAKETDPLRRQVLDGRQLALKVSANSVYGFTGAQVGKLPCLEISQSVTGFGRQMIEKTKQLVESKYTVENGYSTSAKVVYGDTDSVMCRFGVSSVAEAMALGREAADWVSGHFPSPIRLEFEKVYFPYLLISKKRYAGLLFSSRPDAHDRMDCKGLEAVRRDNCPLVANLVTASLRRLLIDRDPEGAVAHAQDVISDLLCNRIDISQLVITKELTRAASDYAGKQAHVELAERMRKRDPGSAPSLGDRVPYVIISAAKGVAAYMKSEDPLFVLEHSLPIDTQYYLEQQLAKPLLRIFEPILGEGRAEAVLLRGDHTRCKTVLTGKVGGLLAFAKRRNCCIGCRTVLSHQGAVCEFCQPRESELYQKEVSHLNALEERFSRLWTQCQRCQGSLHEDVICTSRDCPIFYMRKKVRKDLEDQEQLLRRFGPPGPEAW
T1 sequence (P49005 whole entry, stated change not applied, chain 2 of 3): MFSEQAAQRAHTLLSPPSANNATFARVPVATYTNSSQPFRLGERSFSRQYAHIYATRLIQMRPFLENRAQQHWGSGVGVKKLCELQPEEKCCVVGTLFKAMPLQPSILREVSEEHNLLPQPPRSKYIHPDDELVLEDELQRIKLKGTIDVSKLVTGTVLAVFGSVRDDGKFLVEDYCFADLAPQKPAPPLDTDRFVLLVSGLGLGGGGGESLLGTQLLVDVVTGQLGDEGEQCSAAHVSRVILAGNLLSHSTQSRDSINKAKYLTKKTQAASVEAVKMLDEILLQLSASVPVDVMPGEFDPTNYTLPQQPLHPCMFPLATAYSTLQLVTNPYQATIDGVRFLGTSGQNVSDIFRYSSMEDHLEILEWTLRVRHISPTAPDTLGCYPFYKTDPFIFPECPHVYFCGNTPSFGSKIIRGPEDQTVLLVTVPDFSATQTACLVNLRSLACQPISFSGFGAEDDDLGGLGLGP
T1 sequence (Q9HCU8 whole entry, stated change not applied, chain 4 of 3): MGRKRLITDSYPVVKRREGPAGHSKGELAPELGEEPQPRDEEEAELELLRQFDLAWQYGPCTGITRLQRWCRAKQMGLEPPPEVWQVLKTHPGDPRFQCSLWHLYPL

B1: Human HelQ (enzyme, UniProt Q8TDG4 1-1101, looked up)
chain: MDECGSRIRRRVSLPKRNRPSLGCIFGAPTAAELVPGDEGKEEEEMVAENRRRKTAGVLPVEVQPLLLSDSPECLVLGGGDTNPDLLRHMPTDRGVGDQPNDSEVDMFGDYDSFTENSFIAQVDDLEQKYMQLPEHKKHATDFATENLCSESIKNKLSITTIGNLTELQTDKHTENQSGYEGVTIEPGADLLYDVPSSQAIYFENLQNSSNDLGDHSMKERDWKSSSHNTVNEELPHNCIEQPQQNDESSSKVRTSSDMNRRKSIKDHLKNAMTGNAKAQTPIFSRSKQLKDTLLSEEINVAKKTVESSSNDLGPFYSLPSKVRDLYAQFKGIEKLYEWQHTCLTLNSVQERKNLIYSLPTSGGKTLVAEILMLQELLCCRKDVLMILPYVAIVQEKISGLSSFGIELGFFVEEYAGSKGRFPPTKRREKKSLYIATIEKGHSLVNSLIETGRIDSLGLVVVDELHMIGEGSRGATLEMTLAKILYTSKTTQIIGMSATLNNVEDLQKFLQAEYYTSQFRPVELKEYLKINDTIYEVDSKAENGMTFSRLLNYKYSDTLKKMDPDHLVALVTEVIPNYSCLVFCPSKKNCENVAEMICKFLSKEYLKHKEKEKCEVIKNLKNIGNGNLCPVLKRTIPFGVAYHHSGLTSDERKLLEEAYSTGVLCLFTCTSTLAAGVNLPARRVILRAPYVAKEFLKRNQYKQMIGRAGRAGIDTIGESILILQEKDKQQVLELITKPLENCYSHLVQEFTKGIQTLFLSLIGLKIATNLDDIYHFMNGTFFGVQQKVLLKEKSLWEITVESLRYLTEKGLLQKDTIYKSEEEVQYNFHITKLGRASFKGTIDLAYCDILYRDLKKGLEGLVLESLLHLIYLTTPYDLVSQCNPDWMIYFRQFSQLSPAEQNVAAILGVSESFIGKKASGQAIGKKVDKNVVNRLYLSFVLYTLLKETNIWTVSEKFNMPRGYIQNLLTGTASFSSCVLHFCEELEEFWVYRALLVELTKKLTYCVKAELIPLMEVTGVLEGRAKQLYSAGYKSLMHLANANPEVLVRTIDHLSRRQAKQIVSSAKMLLHEKAEALQEEVEELLRLPSDFPGAVASSTDKA
Take B1: the “FRET ratio of DNA single-strand annealing by HelQ (125 nM) with Pol δ complex (150 nM) added; 0.51 without Pol δ” value in data set [1] was found to be 0.76 FRET ratio. The “FRET efficiency of DNA single-strand annealing by HelQ (125 nM) with POLD3 alone (150 nM) added; 0.50 without POLD3, 0.07 with POLD3 alone” value in data set [2] was 0.87 FRET ratio.

B2: forked DNA (MW12/MW14) (dsDNA)
DNA 1: GTCGGATCCTCTAGACAGCTCCATGATCACTGGCACTGGTAGAATTCGGC
DNA 2: CAACGTCATAGACGATTACATTGCTACATGGAGCTGTCTAGAGGATCCGA
For the molecule B2, in the data set with HelQ, the binding result is listed as “binds”.

B3: N-HelQ R51G/R52G/R53G (domain or fragment)
chain: MDECGSRIRRRVSLPKRNRPSLGCIFGAPTAAELVPGDEGKEEEEMVAENGGGKTAGVLPVEVQPLLLSDSPECLVLGGGDTNPDLLRHMPTDRGVGDQPNDSEVDMFGDYDSFTENSFIAQVDDLEQKYMQLPEHKKHATDFATENLCSESIKNKLSITTIGNLTELQTDKHTENQSGYEGVTIEPGADLLYDVPSSQAIYFENLQNSSNDLGDHSMKERDWKSSSHNTVNEELPHNCIE
The molecule B3 returned an end point of DNA synthesis by Pol δ (40 nM) pre-mixed with N-HelQ^RGx3 (5 nM), percent of DNA as product (68.8% uninhibited) in data set [3] of 12.7%.
